Source: publication PMC11417369, “DNA sequence and chromatin differentiate sequence-specific transcription factor binding in the human malaria parasite Plasmodium falciparum”

T1: HDP1 homeodomain-like (Plasmodium falciparum, UniProt Q8IKH4 2990-3078)
T1 sequence: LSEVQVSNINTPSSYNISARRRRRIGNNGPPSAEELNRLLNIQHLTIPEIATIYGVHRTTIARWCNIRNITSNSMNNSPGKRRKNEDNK

B1: GTGCAC_site10737 (dsDNA)
DNA 1: TAATTTCTTTAGGGGGTGCTTTTATAGTTTTTATTA
DNA 2: TAATAAAAACTATAAAAGCACCCCCTAAAGAAATTA
B2: GTGCAC_site10465 (dsDNA)
DNA 1: TGGTATGCAATATTGGTGCGTATATATTTTAAAGGG
DNA 2: CCCTTTAAAATATATACGCACCAATATTGCATACCA
B3: GTGCAC_negctrl_site34 (dsDNA)
DNA 1: AACTTAAAAAAAAAAAAAAAAAAAAAAAAAAAAAAA
DNA 2: TTTTTTTTTTTTTTTTTTTTTTTTTTTTTTTAAGTT
B4: GTGCAC_site10539 (dsDNA)
DNA 1: ATATATTTTTATATAGTGCAAGTAATAAAAAGGAAT
DNA 2: ATTCCTTTTTATTACTTGCACTATATAAAAATATAT
B5: GTGCAC_site9856 (dsDNA)
DNA 1: TTAGCAGGACGTTTGGTGCACGTACTGTTTTTCTTT
DNA 2: AAAGAAAAACAGTACGTGCACCAAACGTCCTGCTAA
B6: GTGCAC_site10110 (dsDNA)
DNA 1: AGTAGATTTTTATTAGTGCATTTTATACTACAAAAA
DNA 2: TTTTTGTAGTATAAAATGCACTAATAAAAATCTACT
B7: GTGCAC_site10156 (dsDNA)
DNA 1: ACCATATAAAGTTAGGTGCATTTGTATGTATCTTAC
DNA 2: GTAAGATACATACAAATGCACCTAACTTTATATGGT
B8: GTGCAC_negctrl_site29 (dsDNA)
DNA 1: TAAGTCAAAACTTTTTTTTCTAAATTTCCATAATTA
DNA 2: TAATTATGGAAATTTAGAAAAAAAAGTTTTGACTTA
B9: GTGCAC_site10652 (dsDNA)
DNA 1: ATATATATATTTTGGTAGCACCTCCTTTTTTTTTTT
DNA 2: AAAAAAAAAAAGGAGGTGCTACCAAAATATATATAT
B10: GTGCAC_site10031 (dsDNA)
DNA 1: ATAAATAAAACAACAGTGCAATAAAATTAGTTGAGG
DNA 2: CCTCAACTAATTTTATTGCACTGTTGTTTTATTTAT
B11: GTGCAC_site10728 (dsDNA)
DNA 1: TCATACATGGTGTGTTTGCACTTGACCTATATTCAT
DNA 2: ATGAATATAGGTCAAGTGCAAACACACCATGTATGA
B12: GTGCAC_site9933 (dsDNA)
DNA 1: ATCTTATATATATGTGTGCACGTATATATAAGCAAT
DNA 2: ATTGCTTATATATACGTGCACACATATATATAAGAT
B13: GTGCAC_site9698 (dsDNA)
DNA 1: GACTTTTCATTTATAGTGCAAGTTTTTTTTTTTTTT
DNA 2: AAAAAAAAAAAAAACTTGCACTATAAATGAAAAGTC
B14: GTGCAC_site10338 (dsDNA)
DNA 1: TGATATAAAATTAAAGTGCAAAAAAAAAATAAAAAA
DNA 2: TTTTTTATTTTTTTTTTGCACTTTAATTTTATATCA
B15: GTGCAC_negctrl_site380 (dsDNA)
DNA 1: ATGGAAGGATAATAAAAACCTTTACCTTTCTGTTTA
DNA 2: TAAACAGAAAGGTAAAGGTTTTTATTATCCTTCCAT
B16: GTGCAC_negctrl_site124 (dsDNA)
DNA 1: TTTTAAAATTTTTTTTTTTTTTTTTTATGAACAAGT
DNA 2: ACTTGTTCATAAAAAAAAAAAAAAAAAATTTTAAAA
B17: GTGCAC_site10078 (dsDNA)
DNA 1: AATTATATATAAAAAGTGCAAAACGATAATTCATCA
DNA 2: TGATGAATTATCGTTTTGCACTTTTTATATATAATT
B18: GTGCAC_site9865 (dsDNA)
DNA 1: ATGTTGCTCATATGAGTGCACGTTTCATTTCAGTTT
DNA 2: AAACTGAAATGAAACGTGCACTCATATGAGCAACAT
B19: GTGCAC_negctrl_site727 (dsDNA)
DNA 1: TTTTTCTTTTTCTTTTTTTCTTTTTTTTTTTTTTTC
DNA 2: GAAAAAAAAAAAAAAAGAAAAAAAGAAAAAGAAAAA
B20: GTGCAC_site10125 (dsDNA)
DNA 1: ATATATATGGAAACAGTGCAATACATATATATATAT
DNA 2: ATATATATATATGTATTGCACTGTTTCCATATATAT
B21: GTGCAC_negctrl_site338 (dsDNA)
DNA 1: TTTTTTTTTTTTTTTTTTTTTTTGTCTTATTTTTTT
DNA 2: AAAAAAATAAGACAAAAAAAAAAAAAAAAAAAAAAA
B22: GTGCAC_site10061 (dsDNA)
DNA 1: AAAAAAAAAAAAAGAGTGCAAACTATGATAATTTAA
DNA 2: TTAAATTATCATAGTTTGCACTCTTTTTTTTTTTTT
B23: GTGCAC_site10244 (dsDNA)
DNA 1: ATCCGCTGCCTTTTGGTGCAGAACATAATCATGTAA
DNA 2: TTACATGATTATGTTCTGCACCAAAAGGCAGCGGAT
B24: GTGCAC_negctrl_site466 (dsDNA)
DNA 1: AAAAAAATTAAAAATTAAAATTAAAAATAATATATA
DNA 2: TATATATTATTTTTAATTTTAATTTTTAATTTTTTT
B25: GTGCAC_site9715 (dsDNA)
DNA 1: TTTTTTAAATTGGTAGTGCAATATGATTGAACAAAA
DNA 2: TTTTGTTCAATCATATTGCACTACCAATTTAAAAAA
B26: GTGCAC_negctrl_site487 (dsDNA)
DNA 1: ATCATGGAAAAAACAAATGGGCTACATTACCTTTTG
DNA 2: CAAAAGGTAATGTAGCCCATTTGTTTTTTCCATGAT
B27: GTGCAC_site9712 (dsDNA)
DNA 1: GAAAGAAAATATTAAGTGCATATTTTAATGATACAA
DNA 2: TTGTATCATTAAAATATGCACTTAATATTTTCTTTC
B28: GTGCAC_site10533 (dsDNA)
DNA 1: CGTAAATTTTTCTAAGTGCATGTTAATTTTTCAATT
DNA 2: AATTGAAAAATTAACATGCACTTAGAAAAATTTACG
B29: GTGCAC_site9778 (dsDNA)
DNA 1: CACCCTTTACACAAGGTGCATACTTTATTATATTTT
DNA 2: AAAATATAATAAAGTATGCACCTTGTGTAAAGGGTG
B30: GTGCAC_site10509 (dsDNA)
DNA 1: ACAACAATTCACTTGATGCACTAACCAAAAAAATAA
DNA 2: TTATTTTTTTGGTTAGTGCATCAAGTGAATTGTTGT
B31: GTGCAC_site10562 (dsDNA)
DNA 1: TTATTTATTTATATAGTGCAATAAACACATAAATAG
DNA 2: CTATTTATGTGTTTATTGCACTATATAAATAAATAA
B32: GTGCAC_site10269 (dsDNA)
DNA 1: TGTGTATATATGCTGGTGCAACTTTAAAAAATAATC
DNA 2: GATTATTTTTTAAAGTTGCACCAGCATATATACACA
B33: GTGCAC_site10445 (dsDNA)
DNA 1: ACGGAAAAAGAAAAGGTGCATATGGACACAATATAT
DNA 2: ATATATTGTGTCCATATGCACCTTTTCTTTTTCCGT
B34: GTGCAC_site10123 (dsDNA)
DNA 1: ATACCTATTTGATGAGTGCATTATCCAATATATGTA
DNA 2: TACATATATTGGATAATGCACTCATCAAATAGGTAT
B35: GTGCAC_site10124 (dsDNA)
DNA 1: AAAAAAAAAAAATACGTGCACTATGATATATTATAT
DNA 2: ATATAATATATCATAGTGCACGTATTTTTTTTTTTT
B36: GTGCAC_site9450 (dsDNA)
DNA 1: ATAACAAAATGAAGAGTGCATTACCAAGTGGGTAAA
DNA 2: TTTACCCACTTGGTAATGCACTCTTCATTTTGTTAT
B37: GTGCAC_site9537 (dsDNA)
DNA 1: TAAATATATATATGTGTGCACTTCTTCATTTTAATA
DNA 2: TATTAAAATGAAGAAGTGCACACATATATATATTTA
B38: GTGCAC_negctrl_site165 (dsDNA)
DNA 1: AATCGATTGGATAATATTTTTTCTCTTAATTTTTTG
DNA 2: CAAAAAATTAAGAGAAAAAATATTATCCAATCGATT
B39: GTGCAC_site10413 (dsDNA)
DNA 1: AATAAATTCATGATAGTGCAAAAATTATTTTTGTTA
DNA 2: TAACAAAAATAATTTTTGCACTATCATGAATTTATT
B40: GTGCAC_site10762 (dsDNA)
DNA 1: TGTAAAATATAAAAAGTGCATTTCTTTTAATATGAT
DNA 2: ATCATATTAAAAGAAATGCACTTTTTATATTTTACA
B41: GTGCAC_negctrl_site272 (dsDNA)
DNA 1: AAGTTAGGATAGATCCAATAATTTTTAGTTTCTCTT
DNA 2: AAGAGAAACTAAAAATTATTGGATCTATCCTAACTT
B42: GTGCAC_site10399 (dsDNA)
DNA 1: CATATTATTATTTTGGTGCATACTTATATATATTTT
DNA 2: AAAATATATATAAGTATGCACCAAAATAATAATATG
B43: GTGCAC_site9634 (dsDNA)
DNA 1: AAATTGAGACAACAGGTGCATATAAATATACAGTGT
DNA 2: ACACTGTATATTTATATGCACCTGTTGTCTCAATTT
B44: GTGCAC_site9692 (dsDNA)
DNA 1: TATATATGTATAAGAGTGCATATGCATATATGTATA
DNA 2: TATACATATATGCATATGCACTCTTATACATATATA

molecular target: T1, HDP1 homeodomain-like; assay: gcPBM; about 25 ug protein; PBS, 1% milk, 0.2 mg/ml BSA, salmon testes DNA, 0.03% Triton X-100; settings: tags: N-terminal GST (pGEX-4T-1), kept; chain copies: 2; label: surface-attached array probe

Binder	binding signal
B1	8.27 ln median PBM intensity, better of two orientations
B2	8.58 ln median PBM intensity, better of two orientations
B3	5.77 ln median PBM intensity, better of two orientations
B4	8.63 ln median PBM intensity, better of two orientations
B5	9.34 ln median PBM intensity, better of two orientations
B6	8.86 ln median PBM intensity, better of two orientations
B7	9.55 ln median PBM intensity, better of two orientations
B8	5.89 ln median PBM intensity, better of two orientations
B9	8.08 ln median PBM intensity, better of two orientations
B10	8.8 ln median PBM intensity, better of two orientations
B11	8.23 ln median PBM intensity, better of two orientations
B12	9.28 ln median PBM intensity, better of two orientations
B13	7.84 ln median PBM intensity, better of two orientations
B14	8.82 ln median PBM intensity, better of two orientations
B15	5.82 ln median PBM intensity, better of two orientations
B16	5.92 ln median PBM intensity, better of two orientations
B17	8.44 ln median PBM intensity, better of two orientations
B18	8.54 ln median PBM intensity, better of two orientations
B19	5.74 ln median PBM intensity, better of two orientations
B20	9.41 ln median PBM intensity, better of two orientations
B21	5.91 ln median PBM intensity, better of two orientations
B22	8.19 ln median PBM intensity, better of two orientations

Binder	binding signal
B23	8.03 ln median PBM intensity, better of two orientations
B24	5.91 ln median PBM intensity, better of two orientations
B25	9.52 ln median PBM intensity, better of two orientations
B26	5.94 ln median PBM intensity, better of two orientations
B27	8.76 ln median PBM intensity, better of two orientations
B28	7.89 ln median PBM intensity, better of two orientations
B29	8.31 ln median PBM intensity, better of two orientations
B30	7.97 ln median PBM intensity, better of two orientations
B31	9.14 ln median PBM intensity, better of two orientations
B32	9.48 ln median PBM intensity, better of two orientations
B33	9.46 ln median PBM intensity, better of two orientations
B34	8.94 ln median PBM intensity, better of two orientations
B35	9.03 ln median PBM intensity, better of two orientations
B36	7.77 ln median PBM intensity, better of two orientations
B37	9.22 ln median PBM intensity, better of two orientations
B38	5.77 ln median PBM intensity, better of two orientations
B39	8.5 ln median PBM intensity, better of two orientations
B40	7.62 ln median PBM intensity, better of two orientations
B41	5.7 ln median PBM intensity, better of two orientations
B42	9.47 ln median PBM intensity, better of two orientations
B43	9.49 ln median PBM intensity, better of two orientations
B44	8.71 ln median PBM intensity, better of two orientations
